Data as given in patent US6710030B1, “Contortrostain (CN) and methods for its use in preventing metastasis and other conditions” (University of Southern California, priority 1993, dated 2004).
Entries after “also recorded” stand apart in the source; their conditions may differ. Like-named read-outs stand apart in the source and are kept apart here.

What was measured:
[1] = tested on: MDA-MB-435 cells; assay: Invasion of MDA-MB-435 cells through Matrigel-coated invasion chamber; assay type: cell-based, human; conditions: 48 hrs
Protocol: 2.5×10^3 MDA-MB-435 cells treated with various concentration of CN were allowed to migrate across the Matrigel layer for 48 hrs. Assays at each CN concentration were performed in triplicate. Cells invaded through the Matrigel filter were fixed and stained. Invaded cells were quantitated with microscope by the mean of cell numbers in three randomly selected vision field.

[2] = tested on: T24-β3 neg. cells; assay: Adhesion of T24-β3 neg. cells to immobilized vitronectin; assay type: cell-based, human; conditions: FIG. 19 C, D
Protocol: Experiment 1. Cell adhesion assay: Human bladder carcinoma T24 cells were purchased from ATCC, and grown in RPMI1640 medium containing 5% fetal bovine serum. T24-β3 neg. cells were isolated by 6 rounds of negative FACS selection with anti-αvβ3 monoclonal antibody (mAb) LM609. FACS analysis was then performed as follows. The cells were resuspended in 1% BSA/PBS at a density of 1×10^7/ml. Aliquots of 100 μl were incubated with anti-αvβ3 mAb 7E3 or anti-αvβ5 mAb P1F6 (final concentration 5 μg/ml) at room temperature for 30 minutes. The cells were washed twice and resuspended in 1% BSA/PBS. Goat anti-mouse IgG conjugated with FITC was added to the suspension at a final titer of 1:200. After 30 minutes incubation at room temperature in darkness, unbound FITC-conjugated IgG was washed off, and the fluorescent intensity of the cells was analyzed using flow cytometry (FACScan, Becton Dickinson, Bedford, Mass.). Tests were performed in duplicate and the experiment was repeated three times. The results clearly indicate that T24 cells express both integrins αvβ3 (major) and αvβ5 (minor), but T24-β3 neg. cells only express αvβ5 (FIG. 18)
Individual wells of 96-well plates were coated at 4° C. overnight with 100 μl of vitronectin (1 μg/well). […] Cell adhesion was quantified either by CellTiter 96™ Aqueous Proliferation Assay kit (Promega, Madison, Wis.). […]

[3] = tested on: human melanoma M24 met cells; assay: M24 met cell adhesion to extracellular matrix proteins; assay type: cell-based
Description: The compositions of the present invention also have utility in inhibiting metastasis in melanoma, carcinoma and sarcoma patients. […] Thus, methods and compositions for preventing metastases in melanoma, carcinoma and sarcoma patients are also contemplated as within the scope of the present invention.

[4] = tested on: MDA-MB-435 cells; assay: Adhesion of MDA-MB-435 cells to immobilized ECM proteins; assay type: cell-based, human
Protocol: The effect of CN on binding of highly metastatic human breast cancer cells, MDA-MB-435 cell line, to ECM proteins was examined. Human fibronectin and vitronectin were immobilized in the wells of 96-well microtiter plates. […] In a variation of the above experiments, CN was immobilized. […] Referring to FIGS. 12 and 13, varying concentrations of GRGDSP (FIG. 12) or EDTA (FIG. 13) were used to inhibit binding of human mammary carcinoma cells to immobilized CN. CN was at 0.1 μg/well. The vertical line at each data point indicates the y-axis error bar. All experiments were conducted as three sets of triplicates for each data point.

[5] = tested on: KSY-1 Kaposi's sarcoma cells; assay: Phosphotyrosine immunoblot, KSY-1 Kaposi's sarcoma cells; assay type: cell-based; conditions: data not shown

B1: contortrostatin (protein)
chain: DAPANPCCDAATCKLTTGSQCADGLCCDQCKFMKEGTVCRRARGDDLDDYCNGISAGCPRNPFHA
B1 was tested, and the “invasion of synthetic basement membrane by MDA-MB-435 cells” value [1] was “inhibitory effect”, the “adhesion of T24-β3 neg. cells to vitronectin, in words” value [2] was “completely inhibited adhesion; also recorded: inhibits adhesion of T24-β3 neg. completely” and the “M24 met cell adhesion to fibronectin and vitronectin” value [3] was “inhibit”. The “effect on adhesion to human or rat type I collagen” value [4] was “minimal effect”, the IC50 ([4]; immobilized human fibronectin, read-out: IC50 for adhesion to fibronectin) was 18 nM and the IC50 ([4]; immobilized human vitronectin, read-out: IC50 for adhesion to vitronectin) was 1.5 nM. For the same molecule, the “tyrosine phosphorylation of 120-140 kDa proteins” value [5] was “also observed”.
